A protein production outcome set (Wang et al. 2014)

Test: label from the status in PepcDB records
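Note: failed if final PepcDB status was selected cloned or expressed and not failed if soluble or beyond.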

MVTFVLAITAISCLIWCFLLVGWGNFWRCDQVLNFDRPSTLQAYPSVAAIIPARDEASVLGQSLPSLLEQHYPGPLKIILVDDQSSDGTGAVAQRIASGLGHGDRLEVVSGQPLPPGWSGKLWAVEQGWQTVQLKKKGSDSWPEYIFLTDADIAHGPQTITALVEKAQRDNLALVSLMVLLRCESVWEKLLIPAFIFFFQKLYPFPLVNNPQRQTAAAAGGCILMQRSALQTIGGIGALKEALIDDCTLAQKVKAQKLPIWLGLTRANWSLRPYDSLETIWQMVSRTAYTQLNYNPLLLLGTLLGMALVYLTAPIALILAIIWGNAPLALLGAFTWMLMAIAYGPTLKFYGRSWLWGLTLPLIALLYSLMTLDSAWQHWRGQGGGWKGRIYPQGS
protein production: failed

MITTFKCVLVTKNIRMNERLMNSQSGYLRKAVNHPINWYTWSNDVFEIAKKENKPILIDVGAAWCHWCNVMDEDTYSNPEIAKIVNENFIPVKVDRDEMPDLDRLLQNAAMAITGESGWPLTIFMTPEGKVFFGGTYFPPEDRYGRIGFKRLLLEILRIWREDRNQILLSS
protein production: failed

MPTLLNIQEFNKLNMNTILHITKRQQWEQAKNVGSYHADSLDTEGFIHSSKSIQILKVANRFFHHQTELVLLFIDSDQVKPEIRYEAADGDLFPHIYGELNLDAVYQVIDFEPGEDGLFEVPPEVVSLG
protein production: failed

MSNIECVMFDCDGTLVDSEVLCCRAYVVMFAHYDIHLSLEEVIKRFKGVKLNEIVARVSQENGLDEPIEKLEKLYRAEVARLFDAELQPIAGAKALLEQITLPVCVVSNGPVSKMQHSLGLTGLLPFFEDKLYSGYDIQRWKPDPTLIYHAAEKMHVAAERCILVEDSAAGTHAGIAAGIPVYYYCADPHNQPIHHPLVTMFDDMQQLPDLWRERGWQITSH
protein production: failed

MQSYSDSKPGGATFALFETEHLKANIRRALVEAVLSPWQRTFLSDVLSKLERYGNRARLSHKQLLKLNEILGGNGTPRQDRVTTSRTTRHTRRPRFRSPSFLSRQIRWSRRRLARDAVVVALIVMVGLLYSVFETGPVQSFLGTVGKSSHVMGPVDQAFTVTDGDTVHVAGERAGTRLVGFNTPEKFSPQCEYERKLGERASSRLRELVKSPNLQLTKVPCACPAGSEGTDACNHGRSCGVLKVDGRDVGQILIGEGLAVPFICEGNRCPRTPRPWCGQQS
protein production: failed

MERKINRREKEKEYEGKHNSLEDTDQGKNCKSTLMTLNVGGYLYITQKQTLTKYPDTFLEGIVNGKILCPFDADGHYFIDRDGLLFRHVLNFLRNGELLLPEGFRENQLLAQEAEFFQLKGLAEEVKSRWEKEQLTPRETTFLEITDNHDRSQGLRIFCNAPDFISKIKSRIVLVSKSRLDGFPEEFSISSNIIQFKYFIKSENGTRLVLKEDNTFVCTLETLKFEAIMMALKCGFRLLTSLDCSKGSIVHSDALHFIK
protein production: failed

MNQMQGRLVAGRYRLGEAIGSGGMGRVWRAHDEVLHRTVAIKELTAALYVSESDQAILLARTRGEARAAARINHSAVVTVHDVLEHDGRPWIVMELVEGRSLADAVKEEERVDPREAARVGLWVLRALRAAHTAGVLHRDVKPGNVLLADDGRVLLTDFGIAQIEGDSTITRTGEVVGSVDYLAPERVRGHDPGPSSDLWALGATLYTAVEGRSPFRRTSPLTTMQAVVEEEATEPRYAGALAPVISALLRKDPAERPDATEAEHLLAQAAEGRRPDAAQAYVPTTRYEGPPRAGDTAVQGMPAGGSGATPYPQAGGSGATPYPPTTGPTGAGPAPTGHTRGGYTQVGHTEGGYTAPGYAPAPAVGGAAPGRARRVRMRTLALVVAVAALIGAGTAVVLHQRDEGGSSAGADPTQGPTGSAAPSPSPSASATTGKGPGGSVPADWTRRDDPLGFSLYLPENWQRRDFDGDSGELRQIDYTPDGGNHVLRISVDTAPDYNDPYAHQQDLDAQLLQRLVDYRRVKLERAGYRDRDSARWEYTWTALAKDTEFPGPRRAVSQMYMSRDGVEYALNMTGPAGDWPTTQRRFKAVLQGWQEETG
protein production: failed

MNEYFFPKLTAVEALAPYRLRTTWSTGEVLEVDVGDILRKIPDLAPILDPEAFARVHIAEWEGSVEWFDTEFGRDNVYAWAKEQAGEVSHEMFGDWMHRNNLSLTTAAEALGISRRMVSYYRTAHKIIPRTIWLACLGWEATRPETKTLPRTLPAAYAKGVSASLS
protein production: not failed

MEIILNSGGTFVILAAVVGFFMAWGIGANDVANAMGTSVGSKALTIKQAIIIAMIFEFAGAYLAGGEVTSTIRKGIIDASYFVDSPELLVYGMISALFAAATWLLIASALGWPVSTTHSIVGAIVGFAAVGVSTDAVEWGKVVGIVGSWIITPLISGIIAFIIFNSAQKLIFDTDKPLQQAKRWVPAYMFLAGFVLSLVTIKKGLKHIGLENVNLGFVNFEIKGAGGFYLAAIVAIIVAIIGKFFISRLKFDENLAKEAHYVNVEKVFAILMIVTACAMAFAHGSNDVANAIGPLAAVVSIVEHDGQIAAKSAIAWWILPLGGFGIVAGLALFGHKVIATIGQGITHLTPSRGFAAELAAASTVVIASGAGLPISTTQTLVGAVLGVGMARGIAAINLGVVRNIVVSWVITLPVGAGLSIVFFWIMQATFS
protein production: failed

MSFTWRKKMDAKTNNAISKSMMFFHWVIGLGMIAVLISGLVMDDESNNLLFNAHMSFGLLVLALSVPRLVGRLIGGMPKPMTERSKFESIAAAVVMYSLLALTVVLPLSGIAVSVGEGYGLSLFGFELVSSGREIHMLKELGEGIHEFSGEALLPFLLVLHLGASFMHHFIKQDGTLLRMLGKA
protein production: failed

MDCSESCHLKEPSKDRAFTHKPVVDEFKKSVHGAGHAPGATKDFHGGNRLEEETGQQNPSCRRCHSNTPYIKDANLERFKQELHHTETECGTCHQGETWRNQFSGHILRRLVGKNYDKMEANAMCVDCHGDHEAMAKVEIQDPETRERKKASFRFAHATDSYAKTLHGRLLAVNDESGASCIDCHAPDGFRHGILRDESKDSPTHPDRLGETCSQAGCHGYAKSPLNLGFLNTDLHDLDFLRMEDLSFALDFSRLDSAWYAAAWVLGPLGLIFLTSSLLSPLSRSRRAPVTEVVGYDHFQRVMIGGGSAKDGLWRRIRGRLVGGTPAVPVPAPLVEPGAPITSLTILFGSQTGNGEGVAADLEARLKAWGYSVELADMADYDPREIVNERLLFVIVSTHGEGQPPLPAEKLHGYLYAETAPRLEHLKFAVFALGDSSYKHFCKAGKDFDAFLQRLGASRVLDRVDADADFEEAAAAWIDAVLGCCRAIIGDTGIERPLEAEPVDHAVAKSGYGKTHPYPAAVLRNVNLNGEGSAKETRHIEIDLGDSGLSYEPGDALGVYPKNDPAYVEALLAALQADGYSEVTLGKETLSLREAFYKHLDITGLSRVLVEKYAELCDSRVLAGLLADPDPARLEGYLWGRQIIDLVEDFPIQGISPQTFVNVLRRLPPRLYSIASSMKAHPGQVHLTVGAVRYHAHGRNREGVCSTYLAGRIGPGERLAIFVQPNKHFRLPEDPETPLIMVGPGTGIAPFRGFVEEREVTGARGRNWLYFGDQRRATDYLYREEWEDKLRRGVLTRLDLAFSRDQERKVYVQTRMLENAREMYAWLEEGACFYVCGDASRMAQDVHRALLAIVMQEGGRTQEQAEEYLEAMAASRRYLRDVY
protein production: failed

MWPQDPSRKEVLRFAVSCRILTLMLQALFNAIIPDHHAEAFSPPRLAPSGFVDQLVEGLLGGLSHWDAEHFLFIAEHGYLYEHNFAFFPGFPLALLVGTELLRPLRGLLSLRSCLLISVASLNFLFFMLAAVALHDLGCLVLHCPHQSFYAALLFCLSPANVFLAAGYSEALFALLTFSAMGQLERGRVWTSVLLFAFATGVRSNGLVSVGFLMHSQCQGFFSSLTMLNPLRQLFKLMASLFLSVFTLGLPFALFQYYAYTQFCLPGSARPIPEPLVQLAVDKGYRIAEGNEPPWCFWDVPLIYSYIQDVYWNVGFLKYYELKQVPNFLLAAPVAILVAWATWTYVTTHPWLCLTLGLQRSKNNKTLEKPDLGFLSPQVFVYVVHAAVLLLFGGLCMHVQVLTRFLGSSTPIMYWFPAHLLQDQEPLLRSLKTVPWKPLAEDSPPGQKVPRNPIMGLLYHWKTCSPVTRYILGYFLTYWLLGLLLHCNFLPWT
protein production: failed

MALINLNHTDDGYDAYDACPARSVQQETAVGAGAQILLLALLGTAIGMGTAGWLTGLAFAFASWAVLSRALHRSRLPSFGPANRVTLGRATLVGGVTALVADSFRSAPPLSLLVGLTAVALILDGVDGRVARRTGTSTPLGARFDMEVDAFLILVLSVYVALDLGPWVLLIGGMRYVFVAAARVWPWLTAPLPPSTARKTVAALQGVLLLLAGAELLPRPGNAGVVAVALGLLVWSFGRDVRWLWRRSRVPAAPVTAVRELVAQ
protein production: failed

MAYFYLAEAGDWSFRTVWHDRFFTVLKHHPARTEKVEQADYIFLDADFALETNWPYYGSQRKAILKGDRFPTDEEILAFLFDHPVSGYGKPLVLINMNPLAQWPAIAQVLPDVVVVSHCHTLGNYRVGIDVSFPPMPLLDQHCYPSRDRSTLLSFRGANSHPVREQLQRLHQPPEIAAELIQQSYWGTLNYVDEAEGLSAEQQVYTDLIARSRFSVAPRGHDIFSYRLLEVMAGGAIPVILADDWVLPFSELLDWSEFSLSVAEDRCWELPQLLQAISTDQWQVMQQHLQQVYQHYFYSLARQVQTLWQILDQRSLHPSASEVEIEAVLLSQAERYRLKGDLEAAATYLATLPRSPARILEQARLALTQQQPKAALALLDSMVMPEAEQGEHYNLLGVAQTQLGEWDTAIAIYRQGLQAQPHHPKLRTNLCVALRQQEQWEEALALSQALLEEVPAAIDRLLLQADTLNLAGRYDQALSLYQQVVAREPERANAQLAIAEILLRQGKAEGWDIYEARFAAEPSLAALAAHYPQPRWQGVELGQRSLLVWGEQGYGDQIQFSRYLWVLRDRYPQARIQFQTDAVLVPLFAEPLASLGIKVIPAQITEELFDFQVPLLSLPRLVWPSLKDIPYREGWLPCPLPPPREDQNHKFRVGIVWLAGQRAGIQKSATADRRSCSLEAMLELVRESMQRSDLEVVSLQLGYEGRLPEGIQDWSNRLVDFSATARVLMELDLLVTVDTAIVHLAGAMGTPAKVLLAYPPDWRWQQNLELTWYSSIELCYFAHLLSSF
protein production: failed

MNVPILPTISTSCIVISAILVAIGWALIWKRQVHKHKNIMLWAAFFALTFFIIYAARTIFIGNTAFGGPSSIKVYYTIFLVFHIILATVGGVLGLIQIILAFKDKLHIHRKIGPWASIIWFFTAITGVAVYVLLYVLYPGGETTSLLKATLGL
protein production: failed

MQIVGSVALMLWGIRLVRTGFIRAFGGSLRHYLGLAISGRLTSFGVGLAITVFLQSSTATALIISSFASKGLVQTPAALAVMLGADVGTSISAQILSFNLSWLAYAAILIGFFLHGRGGRFATRQIGRAIVGLGMVLLALSLIRMSSQPLREADGLAYVLSALEGEVLLTLFLMAVLTWLVHSSLAVVLLTASLASAGIVPTGTGLVMILGANIGGTIPPIIATLSTGPQSQHAALGNAGFKLLASLLVLPFLPWVGERLQSFGGDAQVLVNFHLTFNLLVATLFLPWVQTAAALLARVFPDTGAGAVEPVTKYLDKELITSPALALTSATRELYRVNERIEDSLALLSGGIAARDQVDVQGAQENRARVAAMLEEFKFYLTDITREEISESDSAKAMNLLLIATNLGHVSELVTNAVELTASTSHEQIRFSEAGTAELLEMLELIHQGIRLALSAALLGDAKVRKTLQKGRKELERMVDESRQAHFSRLAEGTLSSISTTSLHNELLRDFSRIYYHIYTASKIGGRDSSVMIRG
protein production: failed

MINQNATYMEESAQSAVDNFGLGFNLGNTLDANGCGTGKPVATYETFWGQPETTQDMMTFLMQNGFNAVRIPVTWYEHMDAEGNVDEAWMMRVKAIVEYAMNAGLYAIVNVHHDTAAGSGAWIKADTDVYAATKEKFKKLWTQIANALADYDQHLLFEGYNEMLDGNNSWDEPQKASGYEALNNYAQDFVDAVRATGGNNATRNLIVNTYAAAKGENVLNNFMLPTDAVNNHLIVQVHSYDPWNFFNTKTTWDSECHNTLTEIFSALSKKFTTIPYIIGEYGTHGESDISVSKSSPAEKIKLAADQAADMVKLAKDHHSATFYWMSIFDGSDRIQPQWSLPTVVEAMQEAYNN
protein production: not failed
